Test results from article PMC9950733, “Screening and epitope characterization of diagnostic nanobody against total and activated Bacteroides fragilis toxin” (Frontiers in Immunology, 2023).
Substitutions are numbered along the chain they refer to.

T1: recombinant Bacteroides fragilis toxin 1 (BFT1), full length without signal peptide (Bacteroides fragilis (enterotoxigenic), …)
T1 construct: B. fragilis toxin subtype 1 (BFT1, fragilysin), zinc-dependent metallopeptidase of enterotoxigenic Bacteroides fragilis; prodomain plus catalytic domain, without the signal peptide; also called B. fragilis toxin; source: E. coli Origami-2 (DE3), purified (Ni-NTA, SEC on Superdex 75)
T1 chain: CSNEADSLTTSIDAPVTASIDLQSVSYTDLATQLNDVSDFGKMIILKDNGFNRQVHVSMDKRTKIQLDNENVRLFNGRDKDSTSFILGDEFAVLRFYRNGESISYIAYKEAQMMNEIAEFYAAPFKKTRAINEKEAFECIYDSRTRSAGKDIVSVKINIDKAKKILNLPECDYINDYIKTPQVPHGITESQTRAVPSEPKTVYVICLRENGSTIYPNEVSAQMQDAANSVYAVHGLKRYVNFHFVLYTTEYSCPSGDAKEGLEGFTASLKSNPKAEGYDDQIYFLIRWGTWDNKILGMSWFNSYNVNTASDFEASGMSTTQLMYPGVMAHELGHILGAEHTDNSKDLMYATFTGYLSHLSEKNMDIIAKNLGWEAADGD

B1: Nb3.27 (VHH)
VHH: QVQLQESGGGLVQAGGSLRLSCTYSGQTFSAWAMGWFRQAPGKERETVATINWNGERTQYADAVKGRFTISRDNAKDTVYLEMNSLKPEDTAVYYCASMMGTYYSGSPKNWGQGTQVTVSS
notes: from round 3 of bio-panning; CDR1 Gly26-Ala33, CDR2 Ile51-Thr58, CDR3 Ala97-Asn110; source: E. coli WK6 periplasm, purified (Ni-NTA, SEC on Superdex 75)
B2: Nb3.63 (VHH)
VHH: QVQLQESGGGLVQVGGSLRLSCAASGRTFGTFPMGWFRQAPGKEREFVAAISWSGTGTYYANSVKGRFTISRDNARNTVYLQMNNLKPEDTAVYSCAGRNTGRYSTTVYVEESDYGYWGQGTQVTVSS
notes: from round 3 of bio-panning; source: E. coli WK6 periplasm, purified (Ni-NTA, SEC on Superdex 75)
B3: Nb2.40 (VHH)
VHH: QVQLQESGGGLVQAGGSLRLSCAYFGRTFSAWAMGWFRQAPGKERESVATINWSGERTSYADSVKGRFTISRDNAKNTVYLQMNSLKPEDTAVYYCAAMEGTYYSGKPGTWGQGTQVTVSS
notes: from round 2 of bio-panning; source: E. coli WK6 periplasm, purified (Ni-NTA, SEC on Superdex 75)
B4: Nb2.14 (VHH)
VHH: QVQLQESGGGFVQTGGSLRLSCERSGTTFDSFAMGWFRQSPGKEREKVATINWSGESTSYTDSVKGRFTISRDNAKNTVYLQMNNLQPEDTAIYYCAQIAGTHYSGTPQYWGQGTQVTVSS
notes: as for B3
B5: Nb3.40 (VHH)
VHH: B4 VHH with H103Y
notes: as for B2
B6: Nb3.4 (VHH)
VHH: QVQLQESGGGLVQPGGSLRLSCAASGFTFSSAAMNWVRQAPGKGPEWVSGINSSGTTTKYADSVKGRFTISRDNAKNTLYLQMNSLKPEDTAIYYCARKPLWSVGYDYWGQGTQVTVSS
notes: as for B2
B7: Nb3.17 (VHH)
VHH: QVQLQESGGGLVQAGDSLRLSCAASGGSFDMFAMGWFRQAPGKERERVATISWSGDRTVYADSVKGRFTISRDNTKKMLYLQMNNLKPEDTAVYYCAQIEGTHYSGSPSDHWGQGTQVTVSS
notes: as for B2
B8: Nb2.37 (VHH)
VHH: QVQLQESGGGLVQPGGSLRLSCVVSRRTFDAWAMGWFRQAPGQERDFVASVNWSGDSTYYADSVKGRFTISRDNAKNTVYLQMNSLKPEDTAVYYCAALAGSYHSRTPLDDYWGQGTQVTVSS
notes: as for B3
B9: Nb2.41 (VHH)
VHH: QVQLQESGGGLVQAGGSLRLSCASSGRTFDAWAMGWFRQAPGKEREVVATISWNGDRTYYGDSVKGRFTISRDNAKSTVALQMNNLKPEDTGVYYCAQMEGTYYSGRPSYWGQGTQVTVSS
notes: as for B3
B10: Nb2.82 (VHH)
VHH: QVQLQESGGGLVQPGGSLRLSCAASGFTFSRYTMTWVRQAPGKGLEWVSNINSDGGRTYYADSVKGRFTISRDNTKNTLYLQMNSLKPEDTAVYYCAIPKRTYVPPSQFDDRGQGTQVTVSS
notes: from round 2 of bio-panning; CDR1 Gly26-Thr33, CDR2 Ile51-Thr58, CDR3 Ala97-Asp111; source: E. coli WK6 periplasm, purified (Ni-NTA, SEC on Superdex 75)
B11: Nb2.55 (VHH)
VHH: QVQLQESGGGLVQAGGSLRLSCVRSGHTFDAFAMGWFRQAPGKERESVATINWSGDRTYYADSAKGRFTISRDNAKNTVYLQMNSLKPEDTAVYYCAQMDGTYYSGTPSYWGQGTQVTVSS
notes: as for B3
B12: Nb3.43 (VHH)
VHH: B11 VHH with V23A, H27R, D30S, A31S, S47F, R57K, Y59S, A64V, T107S, S109G
notes: as for B2
B13: Nb2.29 (VHH)
VHH: QVQLQESGGGLVQAGGSLRLSCVASGIIDNINTFGWYRQAPGKQRELVANISRWGNTNYADSSRDGFFISSEDANTTMYLLMMNLKPDDDAVYYCRAEIIGYDNGAHDYWGRGTRITVSS
notes: as for B3
B14: Nb3.93 (VHH)
VHH: QVQLQESGGGLVQPGGSLRLSCAASGSTLARYHIGWFRQAPGKEREGVACISSSGDSTNYADSVKGRFTISRDNANNTVYLQMNSLKPEDTAVYYCVADPLKCILRRGGENRYLEHWGQGTQVTVSS
notes: as for B2
B15: Nb2.74 (VHH)
VHH: QVQLQESGGGLVQPGGSLRLSCGASGFTFNGYAMSWVRQAPGKGPEWVSGINTIGNTTYYADSVKGRFTISRDNAQNTLYLQMNSLKPEDTALYYCARKPFGSTWTEYDYRGQGTQVTVSS
B16: Nb3.88 (VHH)
VHH: B15 VHH with G23A, F27L, N56T, Q76K, T106S
B17: Nb2.59 (VHH)
VHH: QVQLQESGGGLVQAGGSLRLSCAFSGRTDDAQYAMGWFRQAPGKERESVGTINWSGDRTNYADSVKGRFTISRDNVKNMMYLQMNSLKPEDTAVYYCARIYGTYLSGSPGSWGQGTQVTVSS
B18: Nb2.13 (VHH)
VHH: QVQLQESGGGLVQPGGSLTLSCVGSGFSLEYYAVGWFRQAPGKEREAVACISSWDGLTYLSDSVKGRFTVSRDNVKNTAYLQMNSLKPEDSAVYYCARDRARCRYYSTPNEYDEWGHGTQVTVSS
B19: Nb2.1 (VHH)
VHH: QVQLQESGGGLVQPEGSLRLSCVASGEFTLDYYAIGWFRQAPGKEREELSCISRTGANTNYADSVKGRFTVSRDNAKNTVYLQMNSLKPEDTANYYCAATLGVNNDCSGYVSPDVYDYWGHGTQVTVSS
B20: Nb2.50 (VHH)
VHH: QVQLQESGGGLVQAGGSLRLSCVSSGRTFDAWAMGWLRQAPGKERESVATISWSGDRTQYADSVKGRFTISRDNAKNTLFLQMNNLRPEDTAIYYCALMEGTHYSGRPGTWGRGTQVTVSS
B21: Nb3.74 (VHH)
VHH: QVQLQESGGGFVQTGGSLRLSCERSGTTFDSFAMGWFRQAPGKERESVGTINWSGDRTYYADSVKGRFTISRDNAKNTVYLQMKKLKPEDTAVYYCAQIRGTYLDGSPGSWGQGTQVTVSS
B22: Nb3.61 (VHH)
VHH: QVQLQESGGGLVQPGGSLRLSCAASGFSFSSYAMTWVRQAPGKGPERVSIINPSGRTTNYADSVKGRFTISRDNAKNTLYLQMNSLKPEDTALYYCARKPPMAEEYDYRGQGTQVTVSS

Target: T1, recombinant Bacteroides fragilis toxin …
Test: ITC; Microcal ITC 200, 25°C; 20 mM Tris pH 8.0, 150 mM NaCl, 5% glycerol; nanobody (20 μM) injected into BFT solution (200 μM); one binding site mode
Settings: both partners purified

Question: For B1, which “stoichiometry N” value is on record?
Answer: 1

Question: Which “stoichiometry N” value does the source give for B2 here?
Answer: 1

Question: How did the “stoichiometry N” value turn out when B3 was run?
Answer: 1

Question: With B4 as the binder, how does the “stoichiometry N” value read?
Answer: 1

Question: With B5 as the binder, how does the “stoichiometry N” value read?
Answer: 1

Question: For B6, which “stoichiometry N” value is on record?
Answer: 1

Question: Which “stoichiometry N” value does the source give for B7 here?
Answer: 1

Question: With B8 as the binder, how does the “stoichiometry N” value read?
Answer: 1

Question: How did the “stoichiometry N” value turn out when B9 was run?
Answer: 1

Question: With B10 as the binder, how does the “stoichiometry N” value read?
Answer: 1

Question: Which “stoichiometry N” value does the source give for B11 here?
Answer: 1

Question: For B12, which “stoichiometry N” value is on record?
Answer: 1

Question: Which “stoichiometry N” value does the source give for B13 here?
Answer: 1

Question: Which “stoichiometry N” value does the source give for B14 here?
Answer: 1

Target: T1, recombinant Bacteroides fragilis toxin …
Test: as above
Settings: both partners purified
Remark: another data set of the same source

Question: For B1, which Kd is on record?
Answer: 0.828 nM

Question: And the dH?
Answer: -9.47 kcal/mol

Question: With B2 as the binder, how does the Kd read?
Answer: 3.37 nM

Question: And the dH?
Answer: -18.8 kcal/mol

Question: B3 was tested. Which Kd did it give?
Answer: 8.72 nM

Question: What about the dH of the same binder?
Answer: -13.5 kcal/mol

Question: With B4 as the binder, how does the Kd read?
Answer: 0.36 nM

Question: And the dH?
Answer: -14.3 kcal/mol

Question: What does the source list for B5?
Answer: Kd: 2.58 nM; dH: -13.6 kcal/mol

Question: Which Kd does the source give for B6 here?
Answer: 3.94 nM

Question: What about the dH of the same binder?
Answer: -8.4 kcal/mol

Question: Which results are given for B7?
Answer: Kd: 0.66 nM; dH: -20.3 kcal/mol

Question: How did the Kd turn out when B8 was run?
Answer: 3.91 nM

Question: What about the dH of the same binder?
Answer: -14.1 kcal/mol

Question: For B9, which Kd is on record?
Answer: 1.37 nM

Question: What about the dH of the same binder?
Answer: -20 kcal/mol

Question: How did the Kd turn out when B10 was run?
Answer: 11.5 nM

Question: What about the dH of the same binder?
Answer: -17.9 kcal/mol

Question: With B11 as the binder, how does the Kd read?
Answer: 10.6 nM

Question: What about the dH of the same binder?
Answer: -10 kcal/mol

Question: What does the source list for B12?
Answer: Kd: 2.01 nM; dH: -9.06 kcal/mol

Question: B13 was tested. Which Kd did it give?
Answer: 1.18 nM

Question: And the dH?
Answer: -15.5 kcal/mol

Question: Which Kd does the source give for B14 here?
Answer: 5.96 nM

Question: And the dH?
Answer: -22.1 kcal/mol

Target: T1, recombinant Bacteroides fragilis toxin …
Test: not given
Settings: not given

Question: Does B15 bind?
Answer: binds

Question: Does B16 bind?
Answer: binds

Question: Does B17 bind?
Answer: binds

Question: Does B18 bind?
Answer: binds

Question: Does B19 bind?
Answer: binds

Question: Does B20 bind?
Answer: binds

Question: Does B21 bind?
Answer: binds

Question: Does B22 bind?
Answer: binds
